Measurements: PMC10433963 (2023)

target: ^H7-SUMOClpC1^FLAG (recombinant ClpC1) (M. smegmatis, UniProt A0R574 1-848); test: MST; 1 mM ATPγS; Kapp from Hill fit
Sequence (A0R574 whole entry): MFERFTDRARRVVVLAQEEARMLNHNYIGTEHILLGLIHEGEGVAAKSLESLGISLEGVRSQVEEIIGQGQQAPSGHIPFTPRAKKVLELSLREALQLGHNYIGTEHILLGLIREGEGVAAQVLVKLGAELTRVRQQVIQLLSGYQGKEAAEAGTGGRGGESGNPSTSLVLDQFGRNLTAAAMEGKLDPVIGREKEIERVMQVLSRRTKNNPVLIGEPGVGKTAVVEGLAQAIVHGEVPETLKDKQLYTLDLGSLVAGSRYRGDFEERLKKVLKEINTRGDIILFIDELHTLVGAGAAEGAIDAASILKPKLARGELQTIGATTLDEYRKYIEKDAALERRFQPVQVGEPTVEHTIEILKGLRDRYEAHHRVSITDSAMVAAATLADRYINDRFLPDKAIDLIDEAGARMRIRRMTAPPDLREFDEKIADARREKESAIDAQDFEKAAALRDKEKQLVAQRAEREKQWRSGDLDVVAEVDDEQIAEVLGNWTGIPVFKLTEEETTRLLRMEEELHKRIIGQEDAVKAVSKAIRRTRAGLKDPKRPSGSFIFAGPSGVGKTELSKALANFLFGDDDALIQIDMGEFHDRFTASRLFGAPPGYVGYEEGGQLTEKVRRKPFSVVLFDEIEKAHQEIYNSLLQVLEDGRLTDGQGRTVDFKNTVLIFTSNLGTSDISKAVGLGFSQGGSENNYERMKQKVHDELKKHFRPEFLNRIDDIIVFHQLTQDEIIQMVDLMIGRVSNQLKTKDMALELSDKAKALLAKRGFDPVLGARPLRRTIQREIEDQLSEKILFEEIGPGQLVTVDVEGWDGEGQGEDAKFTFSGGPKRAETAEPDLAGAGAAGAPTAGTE

Row | Binder | Kd [µM]
1 | XRE (recombinant) (natural protein) MAQDENLAAVVSNAAQDIGSFIRAQREAAQVSVRQLAEKAGVSNPYLSQIERGLRKPSADVLNQIAKALRVSAEVLYVRAGILEPSEPSEVRDAIVNDVSITERQKQVLLDIYTSFRQQNEAAGEPEGAAVIPSPDEEPATD | 4.6
2 | GntR (recombinant) (natural protein) MSPTPDPQSAVPAREIAYRIVYDAIASGRYLPGQWIREDEVTAEAGVSRTPLREALQRLQSEGLVQLVRHRGALVVGWTSADLDDLFDIRVALETYGARRAAQRRGGAQLESLQKLCASMDEILPAAQEPELQQLGHLCIDFHRGIHEAADNRKLLSVMPMVLAPPFVSEAFHHHTRLELEQAFAHHRELVEAIAIGDEDWAEGVMRAHLRHGRRSLRRMERHLPLMTSHDAEPAVTDTGQPETTSSDPVHE | 3.3
3 | Magnesium chelatase (recombinant) (natural protein) MVSQPKDLPRTVGELRASGHRERGVKAEIRENLLAALAERRDVWPGILGFEDTVIPQLERALIAGHDVVLLGERGQGKTRLLRALTGLLDEWTPVIAGSELGEHPYSPITPESIRRAADSGDDLPVEWRHRSERYTEKLATPDTSVADLVGDIDPIKVAEGRSLGDPETIAYGLIPRAHRGIVAVNELPDLAERIQVAMLNVMEERDIQVRGYTLRLPLDVLVVASANPEDYTNRGRIITPLKDRFGAEIRTHYPLELEAEVGVIRQEAELAAEVPEYLLAVLARFARNLRESNSIDQRSGVSARFAIAAAETVAASARHRAAILGEDDPVARVVDLGTVIDVLRGKLEFETGEEGREQAVLEHLLRRATADTAQRLLGGIDVGPLVAAIEEGSPVTTGERVSAKDVVAALPDLPAIDAIAHRLNAVSVGQRAAAIELALEALYLAKRIDKVSGEGETVYG | 6.7
4 | DnaJ1 (recombinant) (natural protein) MAQREWVEKDFYKELGVSSDASADEIKKAYRKLAAELHPDRNSDPGAAERFKAVSEANSVLSDPAKRKEYDETRRLFAGGFGRRFNQGGGGFGGGFGSDGVEFNLGDLFDAAGQTGGANIGDLFGGLFGRGPQQRPSRPRRGNDLETETELSFLEATKGVAMPLRLTSPAPCTNCHGSGARPGTSPKVCPSCNGSGVISRNQGAFGFSEPCTECRGSGSIIEHPCQECRGTGVTTRTRTINVRIPPGVEDGQRIRLAGQGEAGLRGAPSGDLYVTVHVRPDKVFGRDGDDLTVTVPVSFHELALGTTLSVPTLDGKVGVRVPKGTSDGRILRVRGRGVPKRSGGHGDLLVTVKVAVPPNLEGEAAEALEAYAKAERASGFDPRAGWAGNV | 6.4
